# Reference: patent US20220033498A1 (UNIVERSITY OF TOKYO, published 2022)
# T1: mouse CHL1 protein expressed on the surface of HEK293 cells transfected with mChl1 pIRES2-EGFP (mouse, UniProt P70232 26-1209)
# T1 construct: whole, on cells; also called CHL1 protein on cell surface; cell adhesion molecule L1-like
# T1 sequence (looked up): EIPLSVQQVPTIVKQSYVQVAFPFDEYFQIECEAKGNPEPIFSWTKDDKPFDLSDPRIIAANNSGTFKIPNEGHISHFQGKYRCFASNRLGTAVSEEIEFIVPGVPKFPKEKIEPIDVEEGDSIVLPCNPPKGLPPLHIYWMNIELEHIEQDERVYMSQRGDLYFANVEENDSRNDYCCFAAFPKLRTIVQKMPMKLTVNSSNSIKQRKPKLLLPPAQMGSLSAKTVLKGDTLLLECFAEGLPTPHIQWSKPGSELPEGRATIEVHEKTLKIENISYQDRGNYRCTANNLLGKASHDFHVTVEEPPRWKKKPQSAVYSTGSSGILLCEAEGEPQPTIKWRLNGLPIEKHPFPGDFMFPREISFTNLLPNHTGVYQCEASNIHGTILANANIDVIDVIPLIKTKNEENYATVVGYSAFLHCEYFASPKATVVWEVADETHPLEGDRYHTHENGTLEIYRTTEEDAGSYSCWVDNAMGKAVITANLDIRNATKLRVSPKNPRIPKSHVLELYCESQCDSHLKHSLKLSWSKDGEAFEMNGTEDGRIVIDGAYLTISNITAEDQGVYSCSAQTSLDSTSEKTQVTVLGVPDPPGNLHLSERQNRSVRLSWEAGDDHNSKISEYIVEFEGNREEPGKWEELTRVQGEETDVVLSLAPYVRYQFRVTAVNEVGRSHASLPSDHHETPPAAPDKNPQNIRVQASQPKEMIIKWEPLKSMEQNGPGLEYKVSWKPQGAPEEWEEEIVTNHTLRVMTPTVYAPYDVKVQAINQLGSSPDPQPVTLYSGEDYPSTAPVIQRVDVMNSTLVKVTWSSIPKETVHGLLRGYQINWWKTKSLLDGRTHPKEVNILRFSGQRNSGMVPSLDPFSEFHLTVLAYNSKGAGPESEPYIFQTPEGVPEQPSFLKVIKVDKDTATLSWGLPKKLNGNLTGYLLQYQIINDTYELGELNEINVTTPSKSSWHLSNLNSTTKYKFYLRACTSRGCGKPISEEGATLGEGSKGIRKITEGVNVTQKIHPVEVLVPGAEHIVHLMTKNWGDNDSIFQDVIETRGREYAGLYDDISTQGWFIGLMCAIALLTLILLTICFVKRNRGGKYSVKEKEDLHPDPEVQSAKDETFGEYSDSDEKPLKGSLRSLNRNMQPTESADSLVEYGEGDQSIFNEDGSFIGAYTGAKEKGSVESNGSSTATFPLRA
# B1: 336 antibody, a monoclonal antibody to the CHL1 protein (antibody, V domains shown)
# VH: EVQLQQSGPELQRPGASVKLSCKASGYPFTEYYIYWMKQRPKQGLELIGRIDPEDGSTDYVEKFKNKATLTADTSSNTAYMQLSSLTSEDTATYFCARALQGFAYWGQGTLVTVSS
# VL: EIVLTQSPTTMAASPGEKVTLTCRASSSVSYMYWYLQKSGTSPKLWIYDTSRLASGIPDRFSGSGSGTSYSLTISSMETEDTATYYCQQGGSYPYTFGAGTKLELKR
# notes: Rat monoclonal antibody from SD rats immunized with Y3Ag cells expressing mouse CHL1; Used as hybridoma culture supernatant in the FACS screen, and as protein G-purified antibody from ascitic fluid in later work
# Target: T1, mouse CHL1 protein expressed on the …
# Experiment: FACS: hybridoma culture supernatant on HEK293 cells transfected with mChl1 pIRES2-EGFP, detected with APC goat anti-rat IgG
# Description: Mouse CHL1 gene (mChl1) was cloned into pIRES2-EGFP vector by PCR using Phusion (Thermo Fisher Scientific Inc.: F530L). Y3Ag cells ([…]) were transfected with mChl1 pIRES2-EGFP by electroporation, and four 7-week-old female or male SD rats (CLEA Japan, Inc.) were immunized from their footpads and tail roots with a mixture of the cells with TiterMax Gold (Funakoshi Co., Ltd.: G-1X5). After 3 to 8 immunizations, inguinal lymph nodes or iliac lymph nodes were isolated, and their cells were fused with AG8 myeloma cells using PEG1500 (Roche: 10783641001). The obtained hybridomas were screened in HAT medium (DS Pharma Biomedical Co., Ltd.: 16-808-49) or HT medium (DS Pharma Biomedical Co., Ltd.: 16-809-49) under conditions supplemented with BM condimed H1 (Roche: 11088947001). The culture supernatants were collected and reacted with HEK293 cells transfected with mChl1 pIRES2-EGFP. Then, antibody titers in the supernatants were studied by FACS analysis using APC goat anti-Rat IgG (BioLegend, Inc.: 405407).
binder,measurement,value
B1,binding result,binds
